Source: patent US20210008201A1, “ANTIBODIES FOR EPIDERMAL GROWTH FACTOR RECEPTOR 3 (HER3)” (NOVARTIS AG, priority 2011, published 2021)

Experiments:
[1] = system: HER3 phosphorylation in MCF7 cells; assay: Phospho-HER3 in vitro cell assay, neuregulin stimulated MCF7 cells; format: cell-based, human; settings: both ligand-dependent and ligand-independent manner; summary of cell signaling assays
Procedure: MCF-7 cells were routinely maintained in DMEM/F12, 15 mM HEPES, L-glutamine, 10% FCS and SK-Br-3 in McCoy's 5a, 10% FCS, 1.5 mM L-glutamine. Sub-confluent MCF7 or SK-Br-3 cells grown in complete media were harvested with accutase (PAA Laboratories) and resuspended in the appropriate growth media at a final concentration of […]. 100 μL of cell suspension was then added to each well of a 96-well flat bottomed plate (Nunc) to give a final density of 5×10^4 cells/well. MCF7 cells were allowed to attach for approximately 3 hours before the media was exchanged for starvation media containing 0.5% FBS. All plates were then incubated overnight at 37° C. prior to treatment with the appropriate concentration of HER3 antibodies (diluted in the appropriate media) for 80 minutes at 37° C. MCF7 cells were treated with 50 ng/mL neuregulin 1-β1 EGF domain (R&D Systems) for the final 20 minutes to stimulate HER3 phosphorylation. All media was gently aspirated and the cells washed with ice-cold PBS containing 1 mM CaCl2) and 0.5 mM MgCl2 (Gibco). The cells were lysed by adding 50 μL ice-cold lysis buffer (20 mM Tris (pH8.0)/137 mM NaCl/10% Glycerol/2 mM EDTA/1% NP-40/1 mM sodium orthovanadate/, Aprotinin (10 μg/mL)/Leupeptin (10 μg/mL)) and incubated on ice with shaking for 30 minutes. Lysates were then collected and spun at 1800 g for 15 minutes at 4° C. to remove cell debris. 20 μL of lysate was added to a pre-prepared capture plate.
HER3 was captured from the lysate by incubating the plate at room temperature for one hour with shaking before the lysate was aspirated and the wells washed with 1× Tris buffer (Mesoscale Discovery)/0.1% Tween-20. Phosphorylated HER3 was detected using 0.75 μg/mL biotinylated anti-phosphotyrosine antibody (R&D Systems) prepared in 1% BSA/1× Tris/0.1% Tween-20 by incubating with shaking at room temperature for 1 hour. The wells were washed four times with 1× Tris/0.1% Tween-20 and biotinylated proteins were detected by incubating with S-Tag labelled Streptavidin (Mesoscale Discovery) diluted in 1% BSA/1× Tris/0.1% Tween-20 for one hour at room temperature. Each well was aspirated and washed four times with 1× Tris/0.1% Tween-20 before adding 20 μL of Read buffer T with surfactant (Mesoscale Discovery) and the signal quantified using a Mesoscale Sector Imager. Antibodies MOR06391 or MOR03207 were included in signalling experiments as isotype controls.

[2] = system: BT-474 xenografts; assay: In vivo BT-474 efficacy studies; set-up: species or system female athymic nu/nu Balb/C mice; settings: antibody 20 mg/kg in combination with sub-optimal trastuzumab 1 mg/kg
Procedure: BT-474 cells were cultured in DMEM containing 10% heat-inactivated fetal bovine serum without antibiotics until the time of implantation.
One day before cell inoculation, female athymic nu/nu Balb/C mice (Harlan Laboratories) were implanted subcutaneously with a sustained release 17β-estradiol pellet (Innovative Research of America) to maintain serum estrogen levels. One day after 17β-estradiol pellet implantation, 5×10^6 cells were injected orthotopically into the 4th mammary fatpad in a suspension containing 50% phenol red-free matrigel (BD Biosciences) in Hank's balanced salt solution. The total injection volume containing cells in suspension was 200 μL. 20 days following cell implantation animals with a tumor volume of approximately 200 mm^3 were enrolled in the efficacy study. In general, a total of 10 animals per group were enrolled in efficacy studies.
An initial loading dose of 40 mg/kg was given for the first dose. […] For the duration of the studies, tumor volume was measured by calipering twice per week. Percent treatment/control (T/C) values were calculated using the following formula: […]
Body weight was measured twice per week and dose was body weight adjusted. The % change in body weight was calculated as (BWcurrent−BWinitial)/(BWinitial)×100. […]
All data were expressed as mean standard error of the mean (SEM). […]

[3] = system: BxPC3 tumors; assay: In vivo BxPC3 efficacy studies; set-up: species or system female athymic nu/nu Balb/C mice; settings: BxPC3 tumor growth model
Procedure: BxPC3 cells were cultured in RPMI-1640 medium containing 10% heat-inactivated fetal bovine serum without antibiotics until the time of implantation.
Female athymic nu/nu Balb/C mice (Harlan Laboratories) were implanted subcutaneously with 10×10^6 cells in a mixture of 50% phosphate buffered saline with 50% matrigel. The total injection volume containing cells in suspension was 200 μL. Once tumors had reached approximately 200 mm^3 in size, animals were enrolled in the efficacy study. In general, a total of 10 animals per group were enrolled in studies.
Animals were dosed intravenously via lateral tail vein injection. An initial loading dose of 40 mg/kg was given for the first dose. After the initial dose, animals were on a 20 mg/kg, every other day schedule for the duration of the study (25 days under treatment). Tumor volume and T/C values were calculated as previously detailed.

Row | Molecule | inhibition of cellular HER3 activity [1] | % T/C [2] [%] | inhibition of ligand driven tumor growth [3]
1 | MOR09824: anti-HER3 human antibody, IgG1/kappa; VH SEQ ID NO: 33, VL SEQ ID NO: 32 (antibody, V domains shown) VH: QVQLVESGGGLVQPGGSLRLSCAASGFTFSSYAMSWVRQAPGKGLEWVSVISAWGHVKYYADSVKGRFTISRDNSKNTLYLQMNSLRAEDTAVYYCARWGDEGFDIWGQGTLVTVSS VL: DIQMTQSPSSLSASVGDRVTITCRASQGISNWLAWYQQKPGKAPKLLIYGASSLQSGVPSRFSGSGSGTDFTLTISSLQPEDFAVYYCQQYSSFPTTFGQGTKVEIK | capable of inhibiting cellular HER3 activity |  | 
2 | MOR12610: anti-HER3 human antibody, IgG1/kappa; VH SEQ ID NO: 375, VL SEQ ID NO: 374 (antibody, V domains shown) VH: QVQLVESGGGLVQPGGSLRLSCAASGFTFSSYAMSWVRQAPGKGLEWVSGTGPYGGTYYPDSVKGRFTISRDNSKNTLYLQMNSLRAEDTAVYYCARWGDEGFDIWGQGTLVTVSS VL: DIQMTQSPSSLSASVGDRVTITCRASQGISNWLAWYQQKPGKAPKLLIYGASSLQSGVPSRFSGSGSGTDFTLTISSLQPEDFAVYYCQQYSSFPTTFGQGTKVEIK | capable of inhibiting cellular HER3 activity |  | 
3 | MOR10702: anti-HER3 human antibody, IgG1/kappa; VH SEQ ID NO: 123, VL SEQ ID NO: 122 (antibody, V domains shown) VH: EVQLLESGGGLVQPGGSLRLSCAASGFTFSSYAMSWVRQAPGKGLEWVSVISAWGHVKYYADSVKGRFTISRDNSKNTLYLQMNSLRAEDTAVYYCARWGDEGFDIWGQGTLVTVSS VL: DIQMTQSPSSLSASVGDRVTITCRASQGISNWLAWYQQKPGKAPKLLIYGASSLQSGVPSRFSGSGSGTDFTLTISSLQPEDFATYYCQQYSSFPTTFGQGTKVEIK | capable of inhibiting cellular HER3 activity |  | 
4 | MOR09974: anti-HER3 human antibody, IgG1/kappa; VH SEQ ID NO: 69, VL SEQ ID NO: 68 (antibody, V domains shown) VH: QVQLVESGGGLVQPGGSLRLSCAASGFTFSSYAMSWVRQAPGKGLEWVSVINPSGNFTNYADSVKGRFTISRDNSKNTLYLQMNSLRAEDTAVYYCARWGDEGFDIWGQGTLVTVSS VL: DIQMTQSPSSLSASVGDRVTITCRASQGISNWLAWYQQKPGKAPKLLIYGASSLQSGVPSRFSGSGSGTDFTLTISSLQPEDFAVYYCQQYSSFPTTFGQGTKVEIK | capable of inhibiting cellular HER3 activity |  | 
5 | MOR12609: anti-HER3 human antibody, IgG1/kappa; VH SEQ ID NO: 357, VL SEQ ID NO: 356 (antibody, V domains shown) VH: QVQLVESGGGLVQPGGSLRLSCAASGFTFSSYAMSWVRQAPGKGLEWVSVINGLGYTTFYADSVKGRFTISRDNSKNTLYLQMNSLRAEDTAVYYCARWGDEGFDIWGQGTLVTVSS VL: DIQMTQSPSSLSASVGDRVTITCRASQGISNWLAWYQQKPGKAPKLLIYGASSLQSGVPSRFSGSGSGTDFTLTISSLQPEDFAVYYCQQYSSFPTTFGQGTKVEIK | capable of inhibiting cellular HER3 activity |  | 
6 | MOR10701: anti-HER3 human antibody, IgG1/kappa; VH SEQ ID NO: 105, VL SEQ ID NO: 104 (antibody, V domains shown) VH: EVQLLESGGGLVQPGGSLRLSCAASGFTFSSYAMSWVRQAPGKGLEWVSVTGAVGRSTYYPDSVKGRFTISRDNSKNTLYLQMNSLRAEDTAVYYCARWGDEGFDIWGQGTLVTVSS VL: DIQMTQSPSSLSASVGDRVTITCRASQGISNWLAWYQQKPGKAPKLLIYGASSLQSGVPSRFSGSGSGTDFTLTISSLQPEDFATYYCQQYSSFPTTFGQGTKVEIK | capable of inhibiting cellular HER3 activity | −50 | very effectively inhibited ligand driven tumor growth
